T1: human CD122/CD132 on cells of human PBMCs (human, UniProt P14784 27-551; P31785 23-369)
T1 sequence (looked up) 1: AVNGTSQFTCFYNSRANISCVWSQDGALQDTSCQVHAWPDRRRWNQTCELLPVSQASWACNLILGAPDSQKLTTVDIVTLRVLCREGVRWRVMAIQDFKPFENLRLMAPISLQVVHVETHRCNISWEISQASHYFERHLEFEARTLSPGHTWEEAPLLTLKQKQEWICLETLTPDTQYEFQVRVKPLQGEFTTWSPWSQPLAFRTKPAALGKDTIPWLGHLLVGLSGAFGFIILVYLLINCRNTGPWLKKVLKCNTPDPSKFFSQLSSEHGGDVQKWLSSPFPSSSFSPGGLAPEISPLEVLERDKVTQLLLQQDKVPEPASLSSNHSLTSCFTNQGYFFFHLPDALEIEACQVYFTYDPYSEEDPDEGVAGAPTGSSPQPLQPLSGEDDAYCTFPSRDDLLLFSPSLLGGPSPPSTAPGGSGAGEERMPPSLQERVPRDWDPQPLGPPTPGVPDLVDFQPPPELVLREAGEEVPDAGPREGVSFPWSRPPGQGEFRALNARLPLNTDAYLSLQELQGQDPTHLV
T1 sequence (looked up) 2: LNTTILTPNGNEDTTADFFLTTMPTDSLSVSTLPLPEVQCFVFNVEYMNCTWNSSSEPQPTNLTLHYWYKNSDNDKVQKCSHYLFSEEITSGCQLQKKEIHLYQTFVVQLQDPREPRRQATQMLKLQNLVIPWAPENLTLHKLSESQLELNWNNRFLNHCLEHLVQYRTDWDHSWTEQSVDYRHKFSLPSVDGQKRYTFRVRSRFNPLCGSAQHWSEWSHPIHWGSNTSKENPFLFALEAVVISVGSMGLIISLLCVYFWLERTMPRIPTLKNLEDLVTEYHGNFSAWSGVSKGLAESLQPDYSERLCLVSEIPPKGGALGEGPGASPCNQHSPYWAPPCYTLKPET


Columns and labels:
[1] = target: T1, human CD122/CD132 on cells of human …; assay: cell-based or functional assay
[2] = target: human PD-1 on cells of human PBMCs (human, UniProt Q15116 25-288); assay: cell-based or functional assay
Chain of human PD-1 on cells of human PBMCs (Q15116 25-288): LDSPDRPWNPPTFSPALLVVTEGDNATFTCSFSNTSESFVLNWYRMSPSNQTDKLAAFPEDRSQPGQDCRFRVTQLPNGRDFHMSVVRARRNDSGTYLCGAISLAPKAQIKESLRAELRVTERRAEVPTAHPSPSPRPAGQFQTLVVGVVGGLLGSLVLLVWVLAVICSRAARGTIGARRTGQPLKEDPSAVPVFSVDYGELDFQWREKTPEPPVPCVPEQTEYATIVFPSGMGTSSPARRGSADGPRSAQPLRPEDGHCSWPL

Row | pSTAT5 EC50 on human NK cells (hPBMC) [1] [nM] | Fold change = EC50 (Isotype control--IL15)/EC50 (xhPD1--IL15), CD8+cm T cells [2] [fold] | Fold change = EC50 (Isotype control--IL15)/EC50 (xhPD1--IL15), NK cells [2] [fold] | pSTAT5 EC50 on human CD8+cm T cells (hPBMC) [2] | Binder
1 | 0.475 | 47 | 1.99 | 78 pM | xhPD-1-IL15 m1 (other) heavy 1: not shown heavy 2: not shown light: DIQMTQSPSSLSASVGDRVTITCKSSQSLWDSGNQKNFLTWYQQKPGKAPKLLIYWTSYRESGVPSRFSGSGSGTDFTLTISSLQPEDFATYYCQNDYFYPLTFGGGTKVEIKRTVAAPSVFIFPPSDEQLKSGTASVVCLLNNFYPREAKVQWKVDNALQSGNSQESVTEQDSKDSTYSLSSTLTLSKADYEKHKVYACEVTHQGLSSPVTKSFNRGEC
2 | 8.27 | 76.5 | 1.36 | 0.492 nM | xhPD-1-IL15 m2 (other) heavy 1: not shown heavy 2: not shown light: DIQMTQSPSSLSASVGDRVTITCKSSQSLWDSGNQKNFLTWYQQKPGKAPKLLIYWTSYRESGVPSRFSGSGSGTDFTLTISSLQPEDFATYYCQNDYFYPLTFGGGTKVEIKRTVAAPSVFIFPPSDEQLKSGTASVVCLLNNFYPREAKVQWKVDNALQSGNSQESVTEQDSKDSTYSLSSTLTLSKADYEKHKVYACEVTHQGLSSPVTKSFNRGEC

From patent US20210324028A1 (Pfizer, published 2021)
